Experimental data: US20110118131A1 (published 2011)
Residue numbers refer to the chain shown, from its start. Numbers in names are those of the source.

T1: Ep-CAM (UniProt P16422 24-265, limits assumed)
T1 sequence (looked up): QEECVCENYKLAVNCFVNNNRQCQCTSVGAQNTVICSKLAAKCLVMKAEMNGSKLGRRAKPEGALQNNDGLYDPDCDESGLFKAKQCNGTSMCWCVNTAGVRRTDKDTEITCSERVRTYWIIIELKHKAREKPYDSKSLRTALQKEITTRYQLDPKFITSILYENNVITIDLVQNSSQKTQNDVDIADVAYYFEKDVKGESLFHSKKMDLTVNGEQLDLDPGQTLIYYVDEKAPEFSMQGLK

B1: ING-1 Fab, heavy chain A102L (Fab, V domains shown)
VH: QIQLVQSGPELKKPGETVKISCKASGYTFTKYGMNWVKQAPGKGLKWMGWINTYTEEPTYGDDFKGRFAFSLETSASTANLQINNLKSEDTATYFCARFGSLVDYWGQGTSVTVSS
VL: DIVMTQAAFSNPVTLGTSGSISCRSSKSLLHSNGITYLYWYLQKPGQSPQLLIYQMSNLASGVPDRFSSSGSGTDFTLRISRVEAEDVGVYYCAQNLELPRTFGGGTKLEMKR
notes: Fab in periplasmic extract
B2: ING-1 Fab, heavy chain E57P (Fab, V domains shown)
VH: B1 VH with E57P, L102A
VL: B1 VL
notes: Fab in periplasmic extract
B3: ING-1 Fab, heavy chain N52I (Fab, V domains shown)
VH: B1 VH with N52I, L102A
VL: B1 VL
notes: Fab in periplasmic extract
B4: ING-1 Fab, heavy chain D104P (Fab, V domains shown)
VH: B1 VH with L102A, D104P
VL: B1 VL
notes: Fab in periplasmic extract
B5: ING-1 Fab, heavy chain D104V (Fab, V domains shown)
VH: B1 VH with L102A, D104V
VL: B1 VL
notes: Fab in periplasmic extract
B6: ING-1 Fab, heavy chain N52G (Fab, V domains shown)
VH: B1 VH with N52G, L102A
VL: B1 VL
notes: Fab in periplasmic extract
B7: ING-1 Fab, heavy chain S101L (Fab, V domains shown)
VH: B1 VH with S101L, L102A
VL: B1 VL
notes: Fab in periplasmic extract
B8: ING-1 Fab, heavy chain G100P (Fab, V domains shown)
VH: B1 VH with G100P, L102A
VL: B1 VL
notes: Fab in periplasmic extract
B9: ING-1 Fab, heavy chain T53P (Fab, V domains shown)
VH: B1 VH with T53P, L102A
VL: B1 VL
notes: Fab in periplasmic extract
B10: ING-1 Fab, heavy chain E56P (Fab, V domains shown)
VH: B1 VH with E56P, L102A
VL: B1 VL
notes: Fab in periplasmic extract
B11: ING-1 Fab, heavy chain G33A (Fab, V domains shown)
VH: B1 VH with G33A, L102A
VL: B1 VL
notes: Fab in periplasmic extract
B12: ING-1 Fab, heavy chain T53G (Fab, V domains shown)
VH: B1 VH with T53G, L102A
VL: B1 VL
notes: Fab in periplasmic extract
B13: ING-1 Fab, heavy chain E57L (Fab, V domains shown)
VH: B1 VH with E57L, L102A
VL: B1 VL
notes: Fab in periplasmic extract
B14: ING-1 Fab, heavy chain D104L (Fab, V domains shown)
VH: B1 VH with L102A, D104L
VL: B1 VL
notes: Fab in periplasmic extract
B15: ING-1 Fab, heavy chain N52T (Fab, V domains shown)
VH: B1 VH with N52T, L102A
VL: B1 VL
notes: Fab in periplasmic extract
B16: ING-1 Fab, heavy chain D104T (Fab, V domains shown)
VH: B1 VH with L102A, D104T
VL: B1 VL
notes: Fab in periplasmic extract
B17: ING-1 Fab, heavy chain N52A (Fab, V domains shown)
VH: B1 VH with N52A, L102A
VL: B1 VL
notes: Fab in periplasmic extract
B18: ING-1 Fab, heavy chain N52V (Fab, V domains shown)
VH: B1 VH with N52V, L102A
VL: B1 VL
notes: Fab in periplasmic extract
B19: ING-1 Fab, heavy chain G33T (Fab, V domains shown)
VH: B1 VH with G33T, L102A
VL: B1 VL
notes: Fab in periplasmic extract
B20: ING-1 Fab, heavy chain D104A (Fab, V domains shown)
VH: B1 VH with L102A, D104A
VL: B1 VL
notes: Fab in periplasmic extract
B21: ING-1 Fab, heavy chain P58T (Fab, V domains shown)
VH: B1 VH with P58T, L102A
VL: B1 VL
notes: Fab in periplasmic extract
B22: ING-1 Fab, heavy chain N52P (Fab, V domains shown)
VH: B1 VH with N52P, L102A
VL: B1 VL
notes: Fab in periplasmic extract
B23: ING-1 Fab, heavy chain N52L (Fab, V domains shown)
VH: B1 VH with N52L, L102A
VL: B1 VL
notes: Fab in periplasmic extract
B24: ING-1 Fab, heavy chain K31L (Fab, V domains shown)
VH: B1 VH with K31L, L102A
VL: B1 VL
notes: Fab in periplasmic extract
B25: ING-1 Fab, heavy chain G33V (Fab, V domains shown)
VH: B1 VH with G33V, L102A
VL: B1 VL
notes: Fab in periplasmic extract
B26: XPA23 light chain S93G (Fab, V domains shown)
VH: EVQLLESGGGLVQPGGSLRLSCAASGFTFSKYFMFWVRQAPGKGLEWVSVISPSGGMTRYADSVKGRFTISRDNSKNTLYLQMNSLRAEDTAVYYCARVGYGGNSDYWGQGTLVTVSS
VL: DIQMTQSPSSVSASVGDRLTIICRASQDINRWLAWYQQTPGNAPKLLIHSATSLQSGVPSRFSGSGSGTDFTLTINSLQPEDFATYYCQQADGFPLTFGGGTKVEIK
notes: Single light chain substitution; Fab in periplasmic extract; also called C5A (XPA23) S93G
B27: XPA23 light chain S93T (Fab, V domains shown)
VH: B26 VH
VL: B26 VL with G93T
notes: Single light chain substitution; Fab in periplasmic extract; also called C5A (XPA23) S93T
B28: XPA23 light chain S93V (Fab, V domains shown)
VH: B26 VH
VL: B26 VL with G93V
notes: Single light chain substitution; Fab in periplasmic extract; also called C5A (XPA23) S93V
B29: XPA23 light chain S93I (Fab, V domains shown)
VH: B26 VH
VL: B26 VL with G93I
notes: Single light chain substitution; Fab in periplasmic extract; also called C5A (XPA23) S93I
B30: XPA23 light chain S93L (Fab, V domains shown)
VH: B26 VH
VL: B26 VL with G93L
notes: Single light chain substitution; Fab in periplasmic extract; also called C5A (XPA23) S93L
B31: XPA23 light chain S93P (Fab, V domains shown)
VH: B26 VH
VL: B26 VL with G93P
notes: Single light chain substitution; Fab in periplasmic extract; also called C5A (XPA23) S93P

The binders below were run against T1, Ep-CAM (assay: Biacore, Fab periplasmic extract on immobilised Epcam).

binding result | fold difference in affinity vs original | Binder
no binding | – | B1
no binding | – | B2
no binding | – | B3
no binding | – | B4
no binding | – | B5
no binding | – | B6
no binding | – | B7
no binding | – | B8
no binding | – | B9
– | 0.01 fold | B10
– | 0.06 fold | B11
no binding | – | B12
no binding | – | B13
no binding | – | B14
no binding | – | B15
no binding | – | B16
no binding | – | B17
no binding | – | B18
– | 0.01 fold | B19
no binding | – | B20
– | 1 fold | B21
no binding | – | B22
no binding | – | B23
– | 0.6 fold | B24
– | 0.04 fold | B25

These binders were tested against IL-1β (UniProt P01584 117-269) (assay: Biacore, Fab periplasmic extract on IL-1β).

fold difference in affinity vs original | binding result | Binder
0.75 fold | – | B26
1.47 fold | – | B27
3.81 fold | – | B28
1.35 fold | – | B29
1.08 fold | – | B30
– | no binding | B31
